Test results reported in paper PMC5677370, “Structure-based nuclear import mechanism of histones H3 and H4 mediated by Kap123” (eLife, 2017).

Biological target: T1, full-length Kluyveromyces lactis (Kl) Kap123, wild type
T1 chain: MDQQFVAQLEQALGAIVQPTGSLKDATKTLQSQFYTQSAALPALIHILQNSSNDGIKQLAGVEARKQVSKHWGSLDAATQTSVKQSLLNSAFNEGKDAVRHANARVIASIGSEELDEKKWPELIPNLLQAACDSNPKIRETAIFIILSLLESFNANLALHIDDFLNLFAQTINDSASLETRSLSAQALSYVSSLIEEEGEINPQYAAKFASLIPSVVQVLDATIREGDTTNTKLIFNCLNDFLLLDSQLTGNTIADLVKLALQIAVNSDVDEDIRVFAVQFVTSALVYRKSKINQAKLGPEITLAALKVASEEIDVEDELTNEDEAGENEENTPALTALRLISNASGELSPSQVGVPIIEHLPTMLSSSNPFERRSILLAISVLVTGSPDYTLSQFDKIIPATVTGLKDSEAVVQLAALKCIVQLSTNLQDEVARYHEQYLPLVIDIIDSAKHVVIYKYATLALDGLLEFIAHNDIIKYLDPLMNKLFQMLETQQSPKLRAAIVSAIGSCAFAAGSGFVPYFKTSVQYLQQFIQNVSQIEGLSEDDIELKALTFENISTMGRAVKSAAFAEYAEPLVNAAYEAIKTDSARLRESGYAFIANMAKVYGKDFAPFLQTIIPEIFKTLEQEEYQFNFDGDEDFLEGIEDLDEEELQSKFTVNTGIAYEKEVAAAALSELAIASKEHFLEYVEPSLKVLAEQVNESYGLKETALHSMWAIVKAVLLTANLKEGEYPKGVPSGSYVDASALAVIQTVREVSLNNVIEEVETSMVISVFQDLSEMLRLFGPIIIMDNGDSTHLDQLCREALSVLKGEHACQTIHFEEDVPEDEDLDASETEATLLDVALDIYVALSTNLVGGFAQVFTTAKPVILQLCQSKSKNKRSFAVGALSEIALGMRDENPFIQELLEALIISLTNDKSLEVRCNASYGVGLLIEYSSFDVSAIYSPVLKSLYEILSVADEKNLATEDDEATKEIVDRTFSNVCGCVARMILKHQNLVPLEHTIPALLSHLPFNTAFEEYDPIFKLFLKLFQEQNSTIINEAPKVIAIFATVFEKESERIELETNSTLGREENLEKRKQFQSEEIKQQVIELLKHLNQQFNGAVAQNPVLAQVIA
Test: SPR
Details: chain shown with the change; 7°C; wild-type Kap123 immobilized on a CM5 chip with 7116 RU; peptides injected at 0-10 µM; parent: est. 1.00; read off a plot

B1: wild-type H4_(1–21)-NLS peptide, P02309 K5Q; K12Q (peptide)
chain: SGRGQGGKGLGQGGAKRHRKI
Q: How did the ratio to parent turn out when B1 was run?
A: The ratio to parent was 0.4.
